The supplement of paper PMC10567573

B1: WDFY2 (parent)
chain: FWNFKQMWDSKKIGLRQHHCRKCG

Variants of: B1
Assay: protein stability index of a GFP-peptide fusion (GPS, HEK-293T) (PSI 1-6); higher = more stable
Details: c terminus: a fixed tail appended
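Further: lentivirally expressed fusions sorted by FACS into six bins by GFP to DsRed ratio, PSI derived from sequencing read proportions per bin multiplied by bin number.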

Protein stability index, by site and new letter:
R21: V 1.21, S 1.72, T 1.71
I13: P 1.86, Y 2.25, F 2.15, T 1.66, N 2.42, V 2.02, D 2.55, C 2.72, S 2.54, K 1.99, H 1.81, R 2.01, Q 1.73, A 2.52
W2: T 2.12, V 3.04, M 2.39, F 1.61, Q 1.19, G 1.8, C 2.19, H 2.32, P 2.58, R 2.61, A 1.86, D 2.78
C23: A 1.78, T 2.44, G 2.14, V 1.79, D 1.89, Y 1.92, M 1.94, K 2.38, P 2.16, R 1.79, L 2.01, N 2.21, F 2.17, I 2.48, W 2.45
W8: I 1.8, G 2.48, N 3.72, K 2.69, S 2.14, T 2.07, F 2.25, Y 2.04, Q 2.39, H 2.79, M 3.04
K11: D 2.1, F 2.48, H 2.12, P 2.19, Y 2.71, R 1.74, S 1.25, G 2.44, L 1.73, C 2.65, T 1.76, A 2.93, M 1.83, N 2.7, E 2.61, V 1.99, W 1.51
G14: T 2.4, P 1.46, N 1.95, V 2, R 1.9, D 2.41, K 2.14, I 1.48, A 1.66, M 1.89
F4: L 1.94, N 2.29, H 2.47, M 2.26, K 1.46, I 1.51, W 2.26, Y 1.99, V 2.33, R 2.33, G 2.23, S 2.12, A 1.61
S10: Q 2.65, I 2.94, V 1.78, K 2.04, Y 1.72, A 1.32, E 1.72, M 1.76, R 1.53, C 1.94, L 1.67, D 1.75, T 1.73, F 1.72, H 2.55
C20: Y 1.84, D 1.89, E 2.47, F 2.54, I 2.01, L 2.09, V 1.73, H 3.07, G 2.91, A 1.82, M 3.04, W 3.08
K5: M 2.6, N 1.76, G 1.5, D 1.96, L 1.83, E 2.22, Q 2.4, P 1.98, R 1.24, A 1.81, W 1.38, F 1.38, T 1.5, S 1.52, I 1.7, V 2.33
K22: M 1.8, I 4.49, D 1.79, G 1.65, E 1.65, A 1.09, H 1.23, Y 1.78, S 2.72, V 1.7, Q 2.21, L 1.47, N 1.57
K12: E 2.05, N 1.85, A 1.68, L 1.89, M 1.73, R 1.71, H 2.01, Q 2.1, T 2.08, G 1.58, D 1.88, F 1.84, S 2.62, Y 1.53, I 2.06, P 2.03
